Data as given in US20200385479A1 (LYVGEN BIOPHARMA, published 2020).

Columns and labels:
[1] = target: T1, CD137 antigen (Octet antigen binding assay) (UniProt Q07011 24-186, limits assumed); experiment: BLI, Octet Red 96, antibody on anti-human Fc (AHC) biosensors, 1:1 model
T1 construct: also called 4-1BB; TNFRSF9
Method: The chimeric antibodies were tested in an antigen binding assay on Octet Red 96 to estimate binding kinetics. Antibodies were loaded onto anti-human Fc (AHC) biosensors. Loaded sensors were dipped into a serial dilution of each […] (300 nM, 1:3 down, 7 points) in assay buffer (PBS with 0.1% BSA, 0.02% Tween-20 (pH 7.2)).

[2] = target: T2, human CD137-His tag protein; experiment: ELISA, plate coated with human CD137-His at 1 ug/ml, anti-human IgG-HRP, A450
T2 construct: It differs from the cell-surface CD137 and the Octet antigen; also called Sino Biological Inc. Cat #10377-H08H-100; not shown: C-terminal His tag of the vendor's product (Sino Biological Cat #10377-H08H-100)
Method: CD137 protein (human CD137-His tag protein (Sino Biological Inc. Cat #10377-H08H-100) or rhesus monkey CD137-His (Sino Biological Inc. Cat #90305-K08H-100)) was diluted in PBS to 1 ug/ml and used to coat an ELISA plate (Corning, Cat #9018, high binding) at a concentration of 50 ul/well. The plate was incubated overnight at 4° C. The plate was then decanted and washed with PBS-T, and 200 ul/well assay diluent (1×PBS/1% BSA/0.05% Tween-20/0.05% proclin 300) was added. After a 3 hour incubation at room temperature, the plate was washed with PBS-T three times. The testing antibodies were diluted in assay diluent to 0, 0.000003, 0.00003, 0.0003, 0.003, 0.03, and 0.3 ug/ml or approximately 0, 0.00002, 0.0002, 0.002, 0.02, 0.2 and 2 nM and then added to the plate (50 ul/well). The plate was incubated for one hour at 37° C. and then washed three times with PBS-T. Anti-human IgG-HRP conjugate (Bethyl Cat #A80-319P) at a 1:10,000 dilution was added to the plate (100 ul/well). The plate was incubated for 0.5 hour at 37° C., followed by washing with PBS-T three times. The TMB substrate solution was added (100 ul/well). The color was allowed to develop for 8 minutes before it was stopped with 100 ul/well 2N H₂SO₄. Absorbance at 450 nm was determined with an ELISA reader.

T2 sequence (chain, as listed by the source limits assumed): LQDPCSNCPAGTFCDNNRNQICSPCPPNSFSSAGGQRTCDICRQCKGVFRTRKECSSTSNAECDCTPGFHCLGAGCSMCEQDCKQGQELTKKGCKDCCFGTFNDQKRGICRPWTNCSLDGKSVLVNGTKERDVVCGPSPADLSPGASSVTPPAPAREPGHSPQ

| Binder | Kd [1] [nM] | koff [1] [s⁻¹] | kon [1] [M⁻¹ s⁻¹] | EC50 (read off the curve) [2] [nM] | binding result [2] |
| --- | --- | --- | --- | --- | --- |
| LYV372 (23D2-IgG4) (antibody, V domains shown, Chimeric antibody, human IgG4 S228P / human kappa; also called 23D2 in human IgG4S; 23D2b in human Kappa) VH: QVQLQQSGAELVRPGSSVKISCKASGYAFSIYWMNWVKQRPGQGLEWIGQIYPGDGYTNYNGKFKGKATLTADKSSSTAYMQLSSLTSEDSAVYFCARGQLGLDGYWGQGTTLTVSS VL: QIVLTQSPTIMSASPGEKVTMTCSASSSVSYIYWYQQKPGSSPRLLIYDTSNLASGVPVRFSGSGSGTSYSLTISRMEAEDAATYYCQQWNIYPYTFGGGTKLEIKR | 5.8 | 0.0016 | 280000 |  |  |
| LYV375 (22F2-IgG4) (antibody, V domains shown, Chimeric antibody, human IgG4 S228P / human kappa; also called 22F2 in human IgG4SP / human Kappa) VH: EVKLVESGAELVRPGSSVKISCKASGYAFSLYWMNWVKQRPGQGLEWIGQIYPGDGYTNYNGKFKGKATLTADKSSSTAYMQLSSLTSEDSAVYFCARGQLGLDGYWGQGTTLTVSS VL: QIVLTQSPAIMSASPGEKVTMTCSASSSVSYIYWYQQKPGSSPRLLIYDTSNLASGVPVRFSGSGSGTSYSLTISRMEAEDAATYYCQQWNIYPYTFGGGTKLEIKR | 8.2 | 0.0023 | 280000 | 0.01 to 0.02 |  |
| LYV370 (20A12-IgG4) (antibody, V domains shown, Chimeric antibody: hybridoma variable domains on human IgG4 constant region with hinge S228P (EU numbering) and human kappa constant region; S228P is already in the full chain entry; also called 20A12 in human IgG4SP / human kappa) VH: QIQLVQSGPELKKPGETVKISCKASGYTFTTYGMSWVKQAPGKGLKWMGWINTYSGVPTYADDFKGRFAFSLETSASTAYLQINNLKNEDMAIYFCARGYGSPDYWGQGTTLTVSS VL: QIVLTQSPAIMSASPGEKVTMTCSASSSVSYMNWYQQKSGTSPKRWIFDTSKLASGVPARFSGSGSGTSYSLTISSMEAEDAATYYCQQWSGNPPISTFGSGTKLEIKR | 5.7 | 0.001 | 180000 |  | binds |
| LYV371 (11E10-IgG4) (antibody, V domains shown, Chimeric antibody, human IgG4 S228P / human kappa; also called 11E10 in human IgG4SP / human Kappa) VH: QVQLQQSGAELVRPGASVTLSCKASGYTFAGFEMHWIKQTPVHGLGWIGAIDPKTGGTDYNQKFKDKALLTADKSSNTAYMELRSLTSEDSAVYYCTRDLGYFDVWGTGTTVTVSS VL: DIQMTQTTSSLSASLGDRVTISCRASQDIRSNLNWYQQKPDGTVKLLIYYTSRLHSGVPSRFSGSGSGTDYSLTISNLEQEDIATYFCQQSEKLPRTFGGGTKLEIRR | 3.8 | 0.0011 | 280000 |  |  |

Now from value to binder:

| Kd [1] [nM] | koff [1] [s⁻¹] | kon [1] [M⁻¹ s⁻¹] | EC50 (read off the curve) [2] [nM] | binding result [2] | Binder |
| --- | --- | --- | --- | --- | --- |
| 2.1 | 0.00034 | 160000 | ~0.005 |  | LYV402 (26B3-IgG4) (antibody, V domains shown, Chimeric antibody, human IgG4 S228P / human kappa; also called 26B3b in hG4SP / human kappa) VH: EVKLLESGGGLVQPGGSLKLSCAASGFDFSRYWMSWVRQAPGKGLEWIGEINPDSNPINYTPSLKDKFIISRDNAKNTLYLQMSKVRSEDTALYYCARDGSSSRYFDVWGAGTTVTVSS VL: DIVMTQSPATLSVTPGDRVSLSCRASQSISDYLHWYQQKSHESPRLLIKYVSQSISGIPSRFSGSGSGSDFTLSINSVEPEDVGVYYCQNGHSFPPTFGGGTKLEIKR |
| 5.3 | 0.0014 | 260000 | ~0.04 |  | LYV390 (30C11-IgG4) (antibody, V domains shown, Chimeric antibody, human IgG4 S228P / human kappa; also called 30C11 in hG4SP / human kappa) VH: QIQLVQSGPELKKPGESVKISCKASGYTFTDYAMHWVKQAPGKALKWMGLINTYTGKPTYVDDLKGRFVFSLEASASTAKLQISNLKNEDTAIYFCARYYHDGTYYGWFANWGQGTLVTVSS VL: DTVLTQSPALAVSPGERVTVSCGATESVSTALNWYQQKPGQQPRLLIYGASNLESGVPARFSGSGSGTDFTLSIDPVEADDTATYFCQQTWNDPLTFGSGTKLEIKR |
